In paper doi:10.1101/783373 (bioRxiv, 2019):

Tests used:
[1] = molecular target: PACRGΔ1-69 Y108ϕ (p-iodo-L-phenylalanine derivative) (human, UniProt Q96M98-2 70-257, Y108ϕ, p-iodo-L-phenylalanine (ϕ) at 108); experiment: SEC
[2] = molecular target: PACRGΔ1-69 Y189ϕ (p-iodo-L-phenylalanine derivative) (human, UniProt Q96M98-2 70-257, Y189ϕ, p-iodo-L-phenylalanine (ϕ) at 189); experiment: SEC

B1: MEIG1 (human), His6 tag cleaved (natural protein)
chain: MASSDVKPKSVSHAKKWSEEIENLYRFQQAGYRDETEYRQVKQVSMVDRWPETGYVKKLQRRDNTFYYYNKQRECDDKEVHKVKIYAY
binding result [1]: binds
binding result [2]: binds
